From patent US20110300156A1 (Genmab, published 2011) come the findings set out here.

The target in assay [1] is T1, human tissue factor (TF), membrane-bound on cells (human, UniProt P13726 33-295). The experiment in a line: cell-based or functional assay.
The target in assay [2] is T1, human tissue factor (TF), …. The experiment in a line: FACS, Bx-PC3 cells. The essentials:
(§1)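 Cell binding of titrated HuMabs, measured on ice by flow cytometry with PE anti-human IgGFc detection. Controls: HuMab-KLH (negative) and mouse anti-TF with PE anti-mouse IgGFc (positive).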
On the technique in general: In flow cytometry, cells or beads pass a laser one at a time.

Assay [3] has the same target. Kind of assay: FACS, TF transfected CHO cells (S1015-TF), 7.5 µg/mL. The essentials:
as §1

Assay [4] has the same target. The experiment in a line: FACS, MDA-MB-231 cells. The method, boiled down:
as §1

For assay [5] the target is unchanged. The experiment in a line: FACS, Bx-PC3 cells, 30 µg/mL. The method, boiled down: as §1
The target is the same in assay [6]. The experiment in a line: cell-based or functional assay. This is another data set of the same source.
For assay [7] the target is unchanged. Kind of assay: FACS, A431 cells. The essentials:
as §1

Assay [8] shares this target. Kind of assay: FACS, TF transfected CHO cells (S1015-TF). The essentials: as §1
Assay [9] concerns the target T2, murine tissue factor (TF) on transfected HEK293F cells (murine, UniProt P20352 29-294).
T2 construct: whole, on cells; also called murine TF; TFmm
T2 sequence (looked up): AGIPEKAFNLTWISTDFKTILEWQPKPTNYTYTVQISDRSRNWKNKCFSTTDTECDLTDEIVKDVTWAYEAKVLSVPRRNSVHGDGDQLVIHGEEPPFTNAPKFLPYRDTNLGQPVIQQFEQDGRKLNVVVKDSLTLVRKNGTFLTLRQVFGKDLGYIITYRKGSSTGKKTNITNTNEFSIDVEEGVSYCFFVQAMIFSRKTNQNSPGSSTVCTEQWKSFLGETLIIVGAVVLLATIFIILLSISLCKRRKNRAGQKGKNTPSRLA
Kind of assay: FACS on transfected HEK293F cells, 30 µg/mL antibody [panel H].

Assay [10] deals with T3, TF (Innovin) (UniProt P13726 33-295, limits assumed). The experiment in a line: cell-based or functional assay.
The target in assay [11] is T1, human tissue factor (TF), …. Kind of assay: FACS, MDA-MB-231 cells, 30 µg/mL. The method, boiled down:
as §1

Assay [12] shares this target. Kind of assay: cell-based or functional assay. This is another data set of the same source.
Assay [13] has the same target. The experiment in a line: FACS, A431 cells, 30 µg/mL. The essentials:
as §1

The target of assay [14] is T4, TFECDHis (extracellular domain of tissue factor, amino acid 1-251, with C-terminal His tag) (human, UniProt P13726 33-251).
T4 construct: range 1-251; The stated range 1-251 starts at residue 1 of NP-001984; also called extracellular domain of TF
Kind of assay: competition ELISA, inhibition of FVIIa (100 nM) binding to coated TFECDHis. How it is done:
ELISA plates were coated overnight with TFECDHis (0.5 μg/mL, 100 μL per well). Plates were emptied, blocked with PBS containing 2% (v/v) chicken serum (1 hour, RT), and emptied again. […] Plates were washed and incubated with swine-anti-rabbit IgG-HRP antibody (1:2,500; DAKO). After washing, the immune complexes were visualized using ABTS as a substrate.
On the technique in general: ELISA stands for enzyme-linked immunosorbent assay.

Assay [15] addresses T4, TFECDHis (extracellular domain of …). Kind of assay: SPR BIAcore 3000, HuMab immobilized, TFECDHis analyte; footnote: n.a. not assessable = >10^-3 sec^-1. How it is done: (§2) Antibody binding to TF was analyzed by surface plasmon resonance in a BIAcore 3000 (GE Healthcare). TFECDHis was used for the analysis. HuMab antibodies (500 resonance units) were immobilized on the CM-5 sensor chip according to the procedure recommended by the manufacturer. Briefly, after surface activation by EDC and NHS HuMab antibody was injected over the activated CM-5 surface in 10 mM sodium-acetate, pH ranging from 4.0 to 5.5 at 5 μl/min. followed by 1 M Ethanolamine for deactivation. Concentration series of TFECDHis in HBS-EP buffer were injected over the immobilized antibodies at a flow rate of 30 μl/min for 180 sec. Regeneration of the HuMab surface was performed by injection of 10 mM Glycine-HCl pH 2.0 or 10 mM sodium acetate pH 3.0. Kinetic analysis was performed using double reference subtraction and model 1:1 (langmuir) binding analysis.
A general note: SPR reads the build-up and loss of mass on a sensor chip optically.

The target is the same in assay [16]. The experiment in a line: SPR BIAcore 3000, HuMab immobilized, TFECDHis analyte. How it is done: as §2
For assay [17] the target is unchanged. Kind of assay: ELISA, coated TFECDHis, mean of 3. The method, boiled down: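 Plates coated overnight at +4° C with 0.5 μg/mL TFECDHis in PBS pH 7.4, blocked with 2% chicken serum. Serially diluted HuMabs bound 1 h at RT with shaking, detected with HRP anti-human IgG. Binding curves fitted by sigmoidal dose-response with variable slope; anti-KLH HuMab served as negative control.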

For assay [18], the target named is T2, murine tissue factor (TF) on …. Kind of assay: FACS on transfected HEK293F cells, 30 µg/mL antibody [panel I].
Assay [19] has as its target T3, TF (Innovin). Kind of assay: cell-based or functional assay. This is another data set of the same source.
In assay [20] the target is T2, murine tissue factor (TF) on …. Kind of assay: FACS on transfected HEK293F cells, 30 µg/mL antibody [panel J].

B1: anti-TF HuMab 044 (antibody, V domains shown)
VH: QVQLVESGGGVVQPGRSLRLSCAASGFTFSDYAMHWVRQAPGKGLEWVAVIPYDGDNKYYADSVKGRFTISRDNSKNTLYLQMNSLRAEDTAVYYCAREDWGLEVDYWGQGALVTVSS
VL: AIQLTQSPSSLSASVGDRVTITCRASQGINSALAWYQQKPGKAPKLLIYDASSLESGVPSRFSGSGSGTDFTLTISSLQPEDFATYYCQQFNSYPLTFGGGTKVEIK
notes: Human monoclonal antibody from HuMab mice
With B1, in assay [1], the “EC50 of ADCC, A431 cells” value turned out to be 0.19 nM. Further, in assay [1], the “EC50 of ADCC, Bx-PC3 cells” value stood at 0.12 nM. In addition, the “EC50 of ADCC, MDA-MB-231 cells” value in assay [1] came to 0.08 nM. Further, the EC50 (commonly the concentration at which the effect is half-maximal) was determined as 1.88 nM in assay [2], 0.87 nM in assay [4], 1.45 nM in [7] and 2.13 nM in [8]. The “Max MFI” value in [3] is 5020; in assay [5] it was 1140; in assay [11], 1880; in [13] it was 2650. Also, in assay [6], the “IC50, inhibition of FVIIa induced IL-8 release (MDA-MB-231)” value turned out to be 74.6 nM. In addition, in [6], the “max inhibition of FVIIa induced IL-8 release (MDA-MB-231)” value is 17.2%. The binding result in [9] is reported as “no binding (tested: 30 µg/mL)”. In the assay with TF (Innovin) [10], the “% max inhibition of FXa generation” value came out at 3%. In addition, the “% max inhibition of FVIIa induced ERK phosphorylation (A431)” value in assay [12] was found to be 45%. Besides, in assay [12], the “IC50, inhibition of FVIIa induced ERK phosphorylation (A431)” value was more than 66.6 nM. For the same molecule, the IC50 (in general, the concentration needed to halve the response being measured) in [14] came to 0.8 nM. Moreover, in assay [14], the max inhibition came to 54%.

B2: anti-TF HuMab 087-Lg6 (antibody, V domains shown)
VH: EVQLVQSGAEVKKPGESLKISCKGSGYSFTSCWIGWVRQMPGKGLEWMGIIYPGDSDTRYSPSFQGQVTISADKSISTAYLQWSSLKASDTAMYYCARHKLGMDHDAFDIWGQGTMVTVSS
VL: DIQMTQSPSSLSASVGDRVTITCRASQGISSWLAWYQQKPEKAPKSLIYAASSLQSGVPSRFSGSGSGTDFTLTISSLQPEDFATYYCQQYNSYPPTFGQGTTVEVK
notes: as for B1
For the molecule B2, the figures for the EC50 in [2], in [4] and in assay [17] were 7.19 nM, 8.28 nM and 0.09 nM, respectively. Further, the “Max MFI” value in assay [5] was 1030; in [11], 1110. The “max inhibition of FVIIa induced IL-8 release (MDA-MB-231)” value in assay [6] is 4.3%. For the same molecule, the koff (usually a measure of how fast the partners let go of each other) in [15] was more than 0.001 s⁻¹. For the same molecule, the kon (in general, a measure of how fast the partners come together) in assay [16] came out at 591000 M⁻¹ s⁻¹. Also, in assay [14], the max inhibition worked out at 35%. For the same molecule, the binding result in [18] is listed as “no binding (tested: 30 µg/mL)”.

B3: anti-TF HuMab 092-A09 (antibody, V domains shown)
VH: EVQLLESGGGLVQPGGSLRLSCAASGFTFNNYAMSWVRQAPGKGLEWVSSISGSGGRTYYADSVKGRFTISRDNSKNTLFLQMNSLRAEDTAVYYCAKTPWGYYFDYWGQGTLVTVSS
VL: DIQMTQSPSSLSASVGDRVTITCRASQGISSRLAWYQQKPEKAPKSLIYAASSLQSGVPSRFSGSGSGTDFTLTISSLQPEDFATYYCQQYNSYPYTFGQGTKLEIK
notes: as for B1
B3: the EC50 in assay [2] was determined as 0.84 nM; in assay [4] it was 0.53 nM; in assay [7] it was 0.83 nM; in [8], 1.32 nM; in assay [17] it was 0.18 nM. Further, the “Max MFI” value in assay [3] turned out to be 5410; in assay [5], 1260; in assay [11], 2290; in assay [13] it was 3140. In addition, the “IC50, inhibition of blood coagulation (TF induced clotting time)” value with TF (Innovin) [19] was determined as 0.2 nM. Also, in [16], the Kd (usually a measure of binding affinity in units of concentration) came out at 14.1 nM. Also, the binding result in assay [20] is given as “no binding (tested: 30 µg/mL)”. In addition, the max inhibition in [14] was found to be 90%.
